Patent US20250043302A1, “MUTATED HYDROXYPHENYLPYRUVATE DIOXYGENASE POLYPEPTIDE, AND CODING GENE AND USE THEREOF” (BEIJING DABEINONG BIOTECHNOLOGY CO., LTD., priority 2021, published 2025)

Key:
Type in all cases: in vivo
[1] = test system: Arabidopsis thaliana T1 plants; experiment: Mesotrione tolerance of transgenic Arabidopsis thaliana T1 plants (spray, bleached leaf area grade, damage score); design: Scores: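 damage score 0-100 computed as Σ(N×S)/(T×M)×100 over grades 0-3 with higher meaning more damage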; settings: Arabidopsis thaliana T1 plants; for Grade 0 (classification and statistics of the grade of pesticide damage; number of plants) / Grade 1 (classification and statistics of the grade of pesticide damage; number of plants) / Grade 2 (classification and statistics of the grade of pesticide damage; number of plants) / Grade 3 (classification and statistics of the grade of pesticide damage; number of plants): 16 plants
In short: (§1)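 Read-out: per-plant damage grade 0–3 from proportion of bleached leaf area at 7 DAT (1 <50%, 2 >50%, 3 100%). Plants were T1 transformants, glufosinate-selected, plus wild-type CK, sprayed 18 days post-sowing. Rates: topramezone 25–200, isoxaflutole 35–280, mesotrione 52.5–420 g ai/ha.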

[2] = test system: Arabidopsis thaliana T1 plants; experiment: Isoxaflutole tolerance of transgenic Arabidopsis thaliana T1 plants (spray, bleached leaf area grade, damage score); design: Scores (pesticide damage): scale not given here; settings: spray, Arabidopsis thaliana T1 plants; for Classification and statistics of the grade of pesticide damage: Grade 0 (number of plants) / Classification and statistics of the grade of pesticide damage: Grade 1 (number of plants) / Classification and statistics of the grade of pesticide damage: Grade 2 (number of plants) / Classification and statistics of the grade of pesticide damage: Grade 3 (number of plants): 16 plants
In short: as §1

[3] = test system: Arabidopsis thaliana T1 plants; experiment: Topramezone tolerance of transgenic Arabidopsis thaliana T1 plants (spray, bleached leaf area grade, damage score); settings: 7 DAT, Table 4; for Classification and statistics of the grade of pesticide damage: Grade 0 / Classification and statistics of the grade of pesticide damage: Grade 1 / Classification and statistics of the grade of pesticide damage: Grade 2 / Classification and statistics of the grade of pesticide damage: Grade 3: number of plants; for Scores: pesticide damage score 0-100
In short: as §1

[4] = isoxaflutole 35 g ai/ha (0.5x field concentration)
[5] = isoxaflutole 70 g ai/ha (1x field concentration)

B1: MsHPPD-02: nucleotide sequence encoding wild-type Medicago sativa HPPD; vector DBN11734 (nucleic acid)
DNA: ATGGCTATTGAAACCGAAACACAAACTCAGACTGGATTTAAACTGGTAGGGTTCAAGAATTTCGTTAGGGCTAATCCCAAGTCTGATCGTTTTAAGGTCAAGAGGTTCCACCACGTGGAGTTCTGGTGCACTGATGCAACCAACACGGCGCGGCGTTTTTCACATGGTCTTGGAATGCCTATTGTTGCAAAATCCGACCTCTCCACGGGGAACCAAACACACGCCTCTTACCTGCTACGGAGTGGTGACTTGAACTTCCTCTTCAGCGCCGCCTACTCACCCTCCATATCGTTGTCTTCACCATCCTCGACCGCAGCAATTCCTACATTTTCTGCGAGCAACTGCTTCTCTTTCTCTGCCAGTCATGGCCTCGCCGTCAGAGCAGTGGCCGTTGAAGTAGAGGATGCTGAACTTGCTTTTACAACTTCAGTGAATAATGGAGCAATACCGAGCAGTCCGCCGGTCATACTTGAGAATCATGTGAAGCTAGCGGAGGTGAGGCTTTATGGGGACGTCGTTTTAAGATATGTCAGCTACAATGATCCAAACCCCAATCAAAATCCAAATTTGTTGTTCCTTCCTGGCTTCGAGCGTGTTAGCGATGAATCTTCAAACTCTTCACTGGATTTTGGAATCAGACGGTTGGATCATGCTGTTGGAAATGTTCCTGAACTCTCGAGCGCTGTGAAATATGTGAAGGACTTCACCGGTTTTCATGAATTTGCTGAGTTTACTGCAGAAGATGTGGGTACATCAGAGAGTGGCTTGAATTCCGTGGTGCTCGCCAACAACGAGGAGACTGTACTCTTACCAATGAATGAGCCAGTCTATGGCACCAAGCGTAAATCTCAAATTGAGACATATTTGGAGCACAATGAAGGAGCTGGACTTCAGCATCTCGCGCTGAAGAGTGAGGACATCTTCCGCACCCTACGGGAGATGAGGAAAAGAAGTGGTGTTGGTGGGTTTGAATTCATGCCATCACCTCCTGTCACCTACTACAGGAACCTGAAGAACAGAGTTGGTGATGTACTTTCGGACGAGCAGATAAAGGAATGTGAAGAGTTGGGGATTTTGGTTGATAGAGATGATCAAGGAACACTCCTGCAGATTTTTACAAAACCAATTGGCGACCGCCCCACTATCTTCATAGAGATCATCCAGAGGGTGGGGTGCATGCTCAAAGACGAGGAAGGGAAGGAGTACCAGAAGGGCGGCTGTGGTGGTTTTGGGAAAGGAAACTTTTCTGAGTTATTCAAATCAATTGAAGAGTATGAGAAGACGCTTGAAACGCGTCGCACTGCTTGA
modifications: MsHPPD-02 Nucleotide Sequence
notes: vector DBN11734
Resistance evaluation ([1]; mesotrione 52.5 g ai/ha): Non-resistant | Scores ([1]; mesotrione 52.5 g ai/ha): 100 | Grade 0 (classification and statistics of the grade of pesticide damage; number of plants) ([1]; mesotrione 52.5 g ai/ha): 0 | Grade 1 (classification and statistics of the grade of pesticide damage; number of plants) ([1]; mesotrione 52.5 g ai/ha): 0 | Grade 2 (classification and statistics of the grade of pesticide damage; number of plants) ([1]; mesotrione 52.5 g ai/ha): 0 | Grade 3 (classification and statistics of the grade of pesticide damage; number of plants) ([1]; mesotrione 52.5 g ai/ha): 16 | Resistance evaluation ([1]; mesotrione 105 g ai/ha): Non-resistant | Scores ([1]; mesotrione 105 g ai/ha): 100 | Grade 0 (classification and statistics of the grade of pesticide damage; number of plants) ([1]; mesotrione 105 g ai/ha): 0 | Grade 1 (classification and statistics of the grade of pesticide damage; number of plants) ([1]; mesotrione 105 g ai/ha): 0 | Grade 2 (classification and statistics of the grade of pesticide damage; number of plants) ([1]; mesotrione 105 g ai/ha): 0 | Grade 3 (classification and statistics of the grade of pesticide damage; number of plants) ([1]; mesotrione 105 g ai/ha): 16 | Resistance evaluation [2, 4]: Non-resistant | Scores (pesticide damage) [2, 4]: 100 | Classification and statistics of the grade of pesticide damage: Grade 0 (number of plants) [2, 4]: 0 | Classification and statistics of the grade of pesticide damage: Grade 1 (number of plants) [2, 4]: 0 | Classification and statistics of the grade of pesticide damage: Grade 2 (number of plants) [2, 4]: 0 | Classification and statistics of the grade of pesticide damage: Grade 3 (number of plants) [2, 4]: 16 | Resistance evaluation [2, 5]: Non-resistant | Scores (pesticide damage) [2, 5]: 100 | Classification and statistics of the grade of pesticide damage: Grade 0 (number of plants) [2, 5]: 0 | Classification and statistics of the grade of pesticide damage: Grade 1 (number of plants) [2, 5]: 0 | Classification and statistics of the grade of pesticide damage: Grade 2 (number of plants) [2, 5]: 0 | Classification and statistics of the grade of pesticide damage: Grade 3 (number of plants) [2, 5]: 16 | Classification and statistics of the grade of pesticide damage: Grade 0 ([3]; topramezone 25 g ai/ha (1×)): 0 | Classification and statistics of the grade of pesticide damage: Grade 1 ([3]; topramezone 25 g ai/ha (1×)): 0 | Classification and statistics of the grade of pesticide damage: Grade 2 ([3]; topramezone 25 g ai/ha (1×)): 0 | Classification and statistics of the grade of pesticide damage: Grade 3 ([3]; topramezone 25 g ai/ha (1×)): 16 | Classification and statistics of the grade of pesticide damage: Grade 0 ([3]; topramezone 100 g ai/ha (4×)): 0 | Classification and statistics of the grade of pesticide damage: Grade 1 ([3]; topramezone 100 g ai/ha (4×)): 0 | Classification and statistics of the grade of pesticide damage: Grade 2 ([3]; topramezone 100 g ai/ha (4×)): 0 | Classification and statistics of the grade of pesticide damage: Grade 3 ([3]; topramezone 100 g ai/ha (4×)): 16 | Scores ([3]; topramezone 25 g ai/ha (1×)): 100 | Scores ([3]; topramezone 100 g ai/ha (4×)): 100 | Resistance evaluation ([3]; topramezone 25 g ai/ha (1×)): non-resistant (non-resistant plants (scores 68-100)) | Resistance evaluation ([3]; topramezone 100 g ai/ha (4×)): non-resistant (non-resistant plants (scores 68-100))
